{"source": "paper PMC7987339", "target": "Hfq (Escherichia coli) (UniProt P0A6X3)", "sequence (P0A6X3 whole entry)": "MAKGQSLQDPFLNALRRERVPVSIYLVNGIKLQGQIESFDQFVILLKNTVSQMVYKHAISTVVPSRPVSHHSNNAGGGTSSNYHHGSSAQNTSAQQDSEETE", "experiment": "competition", "conditions": "10 nM (so in the source) Tris-HCl pH 8.0, 1 mM DTT, 1 mM MgCl2, 20 mM KCl, 10 mM Na phosphate pH 8.0, 12.5 ug/mL yeast tRNA; 15 min at 37 C; native 5% PAGE in 1X TBE …", "data": [{"sequence": "GGACACCGUCGCUUAAAGUGACGGCAUAAUAAUAAAAAAAUGAAAUUCCUCUUUGACGGGCCAAUAGCGAUAUUGGCCAUUUUUUU [ChiX sRNA]", "values": [{"measurement": "binding", "value": "binds"}]}]}
